In the supplement of paper PMC9732359:
± gives the uncertainty stated by the source.

Test: protein stability index of a GFP-peptide fusion (yeast GPS) (PSI 1-4); higher = more stable; sorted into four equal gates, so the index is relative within each strain
Method in brief: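 For each peptide, the protein stability index sums the read frequency in every gate after multiplying it by the gate number. Read frequencies came from plasmids that were PCR-amplified from each gate and Illumina-sequenced, with reads assigned to strains by barcodes. The gates were four equal bins of GFP/Cherry fluorescence ratio applied to mid-log yeast in leucine-free medium carrying a pooled library of tiled 17-residue yeast protein peptides fused downstream of GFP on a Cherry-expressing plasmid.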

Sequence | protein stability index (doa10∆) | protein stability index (san1∆) | protein stability index (pdr5∆) | protein stability index (ubr1∆)
VEDALDKDSTKEVASLP [FAS2] | 3.15 ± 0.13 | 3.12 ± 0.12 | – | –
KSRGSDLQYLGEFSGKN [RRP6] | 3.13 ± 0.088 | 3.45 ± 0.082 | 3.34 ± 0.11 | 3.31 ± 0.073
QPVNINLDSSITQDGKF [YMR129W/POM152] | 2.92 ± 0.098 | 3.07 ± 0.048 | 3.18 ± 0.084 | 3.04 ± 0.059
SNLQRAQNVPMNIIQQQ [GAL11] | 2.47 ± 0.052 | 2.34 ± 0.078 | 2.55 ± 0.047 | 2.34 ± 0.031
PLLDIVLKADRSWNEPS [YML103C/NUP188] | 2.02 ± 0.15 | – | 2.86 ± 0.26 | 3.12 ± 0.11
DSFSVPNRLVKELQYDN [PRE2] | 3.02 ± 0.18 | 3.09 ± 0.11 | 2.94 ± 0.24 | 3.37 ± 0.29
ETRPAQVILPMSPNHGT [FAS2] | 2.43 ± 0.042 | 2.46 ± 0.071 | 2.38 ± 0.04 | 2.36 ± 0.036
KLNKKLQHLRSRCHLVT [SRP68] | 3.23 ± 0.11 | 3.3 ± 0.039 | 3.34 ± 0.09 | 3.27 ± 0.077
KSMKYVKKILPLYARYI [ECM29] | 1.38 ± 0.093 | – | 1.19 ± 0.069 | 1.18 ± 0.1
QFVPELKEFTAKLRKEL [FAS2] | 1.53 ± 0.061 | 1.53 ± 0.1 | 1.61 ± 0.043 | 1.57 ± 0.026
TDWDPQFNAITGLNGSG [SMC2] | 2.94 ± 0.19 | 2.3 ± 0.19 | – | –
GNGKLSEHFLYLAKELN [RPN1] | 3.06 ± 0.23 | 2.42 ± 0.2 | 2.19 ± 0.18 | 2.98 ± 0.29
DDSFFNETNDKKRNPSK [PRP28] | 3.16 ± 0.098 | 3.13 ± 0.072 | 2.96 ± 0.1 | 2.85 ± 0.084
VRLRSNVIKTGIRIISL [RPN3] | 2.27 ± 0.21 | 2.22 ± 0.23 | 2.35 ± 0.14 | 2.44 ± 0.065
HQSELIIKQTVHPIPDV [YMR129W/POM152] | 2.74 ± 0.066 | 2.55 ± 0.071 | 2.86 ± 0.055 | 2.27 ± 0.061
KKDQSVLKSHSNDFEEG [YMR129W/POM152] | 2.59 ± 0.087 | 3.07 ± 0.071 | 2.99 ± 0.12 | 2.95 ± 0.073
VEILFEAGASAELDDCR [RPO21] | 2.94 ± 0.14 | 2.93 ± 0.074 | 3.44 ± 0.15 | 3.49 ± 0.16
FEETKLSTTPTKSNRRV [SIR4] | 2.65 ± 0.1 | 2.73 ± 0.12 | 2.83 ± 0.12 | 2.78 ± 0.15
TPMTRISELPPQIRQEI [YGL172W/NUP49] | 2.84 ± 0.074 | 2.65 ± 0.051 | 3.11 ± 0.055 | 2.86 ± 0.043
YSTCPSETDLNDIPLGS [SRB8] | 2.52 ± 0.13 | 2.36 ± 0.14 | 2.72 ± 0.18 | 2.47 ± 0.078
NLRHERNSLETKLTTCK [YIL149C/MLP2] | 2.83 ± 0.13 | 2.93 ± 0.12 | 2.79 ± 0.14 | 3.04 ± 0.077
MNNGSGRYLLTPPDDLH [SRB8] | 2.41 ± 0.06 | 2.29 ± 0.13 | 2 ± 0.044 | 2.63 ± 0.054
TEQTKSKNPLSLTEATK [YLR335W/NUP2] | 3.08 ± 0.045 | 2.91 ± 0.062 | 2.97 ± 0.053 | 3.14 ± 0.051
SSFNFNKNLPFVWLSSE [SWI1] | 3.05 ± 0.046 | 1.84 ± 0.053 | 2.32 ± 0.057 | 2.4 ± 0.033

Sequence | protein stability index (doa10∆) | protein stability index (san1∆) | protein stability index (pdr5∆) | protein stability index (ubr1∆)
VKYINFGKTVKDGPFYT [RPC31] | 3 ± 0.1 | 2.35 ± 0.061 | 2.84 ± 0.085 | 2.29 ± 0.044
MFFIKDLSLNITLHPSF [RPB7] | – | – | 1.97 ± 0.16 | 2.24 ± 0.26
DQKIWPYLEKYPEYDQI [SSN3] | 3.5 ± 0.12 | 3.11 ± 0.065 | 3.08 ± 0.09 | 3.43 ± 0.1
IHGQDFQFFPKELDALQ [ISW2] | 2.62 ± 0.048 | 3.11 ± 0.037 | 2.75 ± 0.053 | 2.78 ± 0.041
GTGLQSYLEERERQVNE [RPC53] | 3.17 ± 0.16 | 3.14 ± 0.11 | 3.24 ± 0.12 | 3.25 ± 0.13
LRRVEERFTKSKTLSLI [FAS1] | 2.31 ± 0.076 | 2.17 ± 0.087 | 2.09 ± 0.059 | 1.79 ± 0.037
PLLRKVVDRESDIPKTT [PRE4] | 2.54 ± 0.11 | 1.87 ± 0.13 | 2.46 ± 0.091 | 2.79 ± 0.067
EVTKGEKTYTKAPKIQR [RPS6A] | 3.17 ± 0.18 | – | 3.19 ± 0.14 | 3.53 ± 0.13
VIDGKLPFMQNAGPNSN [YDL088C/ASM4] | 2.93 ± 0.049 | 2.91 ± 0.037 | 3.04 ± 0.054 | 2.92 ± 0.04
VRTHMRNMIIVPEMIGS [RPS15] | 1.25 ± 0.059 | 1.39 ± 0.12 | 1.47 ± 0.06 | 1.54 ± 0.05
DSLSGAVIAAIMQEAGL [RPT3] | – | – | 1.14 ± 0.18 | –
TWSLILNECLKTIQINN [YML031W/NDC1] | 1.88 ± 0.057 | 1.3 ± 0.1 | 1.62 ± 0.058 | 1.86 ± 0.042
VTDSSLLKLLTRLVQLR [GRR1] | 2.4 ± 0.054 | 2.41 ± 0.074 | 1.7 ± 0.056 | 1.84 ± 0.045
SPSEFVDVAIPCNNRGK [RPS0A] | 1.74 ± 0.096 | 1.61 ± 0.093 | 1.97 ± 0.065 | 1.54 ± 0.096
DCQFWETWLGSQCRLHE [PRE2] | 2.22 ± 0.096 | 2.59 ± 0.11 | 2.1 ± 0.14 | 2.6 ± 0.09
LDRRFEIFFKKDSLWQS [FAS1] | 3.15 ± 0.13 | 2.52 ± 0.26 | 3.16 ± 0.11 | 2.91 ± 0.061
VEIEKRILKLGTQLATL [YGR119C/NUP57] | 2.11 ± 0.23 | 1.94 ± 0.18 | 1.22 ± 0.14 | 1.4 ± 0.066
NDLRDMILNYNPSQGVS [UBP6] | 2.21 ± 0.072 | 3.16 ± 0.077 | 3.23 ± 0.12 | 3.18 ± 0.064
NVEPTENAYKSENAPSA [YAR002W/NUP60] | 2.81 ± 0.094 | 2.29 ± 0.16 | 3.02 ± 0.12 | 3.03 ± 0.12
KYISAELYAQLRENGLV [SNU114] | 2.91 ± 0.13 | 3.21 ± 0.092 | 2.99 ± 0.12 | 3.07 ± 0.076
MSEEQDPLLAGLGETSG [RPT4] | 2.91 ± 0.24 | 3.57 ± 0.17 | 3.55 ± 0.17 | 3.25 ± 0.15
ANGIINVKEITEKLKIS [SMC3] | 2.81 ± 0.12 | 2.75 ± 0.14 | 2.64 ± 0.099 | 2.9 ± 0.06
ALTRGEALLVVLVSSVT [RPS12] | – | 3.52 ± 0.24 | 3.63 ± 0.26 | 3.29 ± 0.26
TRKGYIPSSKYAYMMNS [YLR018C/POM34] | 3.08 ± 0.11 | 2.98 ± 0.21 | 2.73 ± 0.12 | 2.65 ± 0.14
